Experimental data as given in the supplement of paper PMC10567573.

B1: SPRY1 (parent)
chain: WIHRPGCRCKNSNTVYCKLESCPS
B2: GAGE1 (parent)
chain: QPPEMIGPMRPEQFSDEVEPATPE

Variants of: B1
Experiment: protein stability index of a GFP-peptide fusion (GPS, HEK-293T) (PSI 1-6); higher = more stable
Details: c terminus: a fixed tail appended
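Note: lentivirally expressed fusions sorted by FACS into six bins by GFP to DsRed ratio, PSI derived from sequencing read proportions per bin multiplied by bin number.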

Variant | protein stability index
V15K | 2.18
V15L | 2.34
V15M | 1.74
V15N | 2.68
V15P | 3.11
V15Q | 2.65
V15R | 2.67
V15S | 2.35
V15T | 3.03
V15W | 2.92
V15Y | 1.6
Y16A | 3.71
Y16C | 2.69
Y16D | 2.91
Y16E | 3.28
Y16F | 1.74
Y16G | 2.75
Y16H | 2.65
Y16I | 1.87
Y16K | 2.05
Y16L | 2.28
Y16M | 2.02
Y16N | 3.56
Y16P | 2.56
Y16Q | 2.46

Variant | protein stability index
Y16S | 2.92
Y16V | 2.91
Y16W | 2.68
C17A | 1.44
C17D | 1.99
C17E | 2.39
C17F | 2.98
C17G | 2.81
C17H | 2.3
C17I | 2.46
C17K | 2.42
C17L | 1.58
C17M | 2.21
C17N | 1.51
C17P | 2.1
C17Q | 1.71
C17S | 2.13
C17T | 1.65
C17V | 3.78
C17Y | 1.65
K18A | 1.91
K18C | 2.72
K18D | 3.3
K18F | 1.74
K18G | 2.58

Variant | protein stability index
K18H | 2.1
K18I | 1.68
K18L | 1.8
K18M | 2.46
K18N | 2.66
K18P | 2.03
K18Q | 2.25
K18R | 2.09
K18S | 2.28
K18T | 2.55
K18V | 1.7
K18W | 1.63
K18Y | 1.73
L19A | 3
L19C | 3.1
L19D | 3.51
L19F | 2.06
L19G | 2.68
L19H | 1.89
L19I | 1.76
L19K | 2.46
L19M | 2.37
L19N | 3.33
L19P | 2.01
L19Q | 2.59

Variant | protein stability index
L19R | 2.73
L19T | 2.44
L19V | 2
L19W | 2.16
L19Y | 2.49
E20A | 1.84
E20C | 2.41
E20D | 2.26
E20F | 2.37
E20G | 2.21
E20H | 1.78
E20I | 1.5
E20K | 2.07
E20L | 2.06
E20M | 1.4
E20N | 2.13
E20P | 1.92
E20Q | 2.12
E20R | 2.91
E20S | 2.77
E20T | 2.33
E20V | 1.77
E20Y | 2.61
S21A | 2.13
S21C | 1.8

Variant | protein stability index
S21D | 2.13
S21E | 2.4
S21F | 2.56
S21G | 2.22
S21H | 2
S21I | 2.67
S21K | 1.79
S21L | 1.7
S21M | 1.99
S21N | 2.63
S21P | 2.74
S21Q | 2.14
S21R | 2.17
S21T | 2.17
S21V | 2.09
S21W | 2.75
S21Y | 2.04
C22A | 3.24
C22D | 1.98
C22E | 2.02
C22F | 1.8
C22G | 2.29
C22H | 2.01
C22I | 1.84
C22K | 1.88

Variant | protein stability index
C22L | 2.03
C22M | 1.53
C22N | 1.9
C22P | 2.68
C22Q | 1.98
C22R | 3.31
C22S | 2.26
C22T | 2.07
C22V | 2.52
C22W | 1.83
C22Y | 2.44
P23A | 2.29
P23C | 2.43
P23D | 3.04
P23E | 2.03
P23F | 3.63
P23G | 2.84
P23H | 2.23
P23I | 1.32
P23K | 2.15
P23L | 1.71
P23M | 1.56
P23N | 2.43
P23Q | 2.41
P23R | 1.93

Variant | protein stability index
P23S | 2.9
P23T | 1.83
P23V | 1.47
P23W | 2.35
P23Y | 1.99
S24A | 2.25
S24C | 2.5
S24D | 3.1
S24E | 2.52
S24F | 2.09
S24G | 2.1
S24H | 2.63
S24I | 2.29
S24K | 2.05
S24L | 2
S24M | 2.37
S24N | 2.1
S24P | 2.16
S24Q | 2.13
S24R | 1.61
S24T | 2.1
S24V | 2.5
S24W | 3.62
S24Y | 3.13

Variants of: B2
Experiment: as above
Details: c terminus: a fixed tail appended

Variant | protein stability index
Q1A | 4.84
Q1C | 5.33
Q1D | 5.42
Q1E | 5.01
Q1F | 4.95
Q1G | 4.64
Q1H | 5.06
Q1I | 4.78
Q1K | 4.57
Q1L | 5.07
Q1M | 5.27
Q1N | 5.06
Q1R | 5.04
Q1S | 4.89
Q1T | 4.94
Q1V | 4.68
Q1W | 5.49
Q1Y | 4.8
P2A | 4.8
P2C | 5.32
P2D | 4.87
P2E | 4.88
P2F | 5.11

Variant | protein stability index
P2G | 5.6
P2H | 5.25
P2I | 4.28
P2K | 4.99
P2L | 4.88
P2M | 4.59
P2N | 5.34
P2Q | 4.64
P2R | 4.8
P2S | 4.65
P2T | 5.09
P2V | 4.4
P2W | 4.48
P2Y | 4.8
P3A | 5.73
P3C | 5.44
P3D | 5.75
P3E | 5.63
P3F | 5.22
P3G | 5.17
P3H | 5.52
P3I | 4.9
P3K | 5.64

Variant | protein stability index
P3L | 4.76
P3M | 5.76
P3N | 5.4
P3Q | 5.51
P3R | 5.71
P3S | 5.26
P3T | 5.57
P3V | 4.83
P3W | 5.23
P3Y | 5.32
E4A | 5.75
E4C | 5.58
E4D | 5.65
E4F | 5.62
E4G | 5.72
E4H | 5.6
E4I | 5.52
E4K | 5.46
E4L | 5.54
E4M | 5.65
E4N | 5.48
E4P | 5.56
E4Q | 5.68

Variant | protein stability index
E4R | 5.74
E4S | 5.2
E4T | 5.56
E4V | 5.41
E4W | 5.61
E4Y | 5.75
M5A | 5.68
M5C | 4.73
M5D | 5.02
M5E | 5.15
M5F | 5.32
M5G | 5.45
M5H | 5.5
M5I | 4.57
M5K | 5.27
M5L | 4.55
M5N | 5
M5P | 5.9
M5Q | 5.25
M5R | 5.81
M5S | 3.55
M5T | 5.19
M5V | 4.27

Variant | protein stability index
M5W | 5.54
M5Y | 4.99
I6A | 5.59
I6C | 5.91
I6D | 5.79
I6E | 5.81
I6F | 5.89
I6G | 5.45
I6H | 5.72
I6K | 5.78
I6L | 5.64
I6M | 5.59
I6N | 5.72
I6P | 5.52
I6Q | 5.32
I6R | 5.86
I6S | 6
I6T | 5.72
I6V | 5.79
I6W | 5.83
I6Y | 5.65
G7A | 5.38
G7C | 5.63

Variant | protein stability index
G7D | 5.22
G7E | 5.69
G7F | 5.83
G7H | 5.48
G7I | 5.14
G7K | 5.54
G7L | 5.44
G7M | 5.55
G7N | 5.91
G7P | 5.56
G7Q | 5.69
G7R | 5.68
G7S | 5.68
G7T | 5.46
G7V | 5.68
G7W | 5.73
G7Y | 5.76
P8A | 5.5
P8C | 5.48
P8D | 5.1
P8E | 5.86
P8F | 4.9
P8G | 5.45

Variant | protein stability index
P8H | 5.47
P8I | 5.09
P8K | 5.46
P8L | 5.52
P8M | 4.75
P8N | 5.91
P8Q | 5.76
P8R | 5.24
P8S | 5.54
P8T | 5.62
P8V | 5.67
P8Y | 4.92
M9A | 5.28
M9C | 5.7
M9D | 5.82
M9E | 5.62
M9F | 5.54
M9G | 5.5
M9H | 5.9
M9I | 5.13
M9K | 5.81
M9L | 5.31
